Consider 5 molecules from patent EP4803098A1 (Shandong Boan Biotechnology Co., Ltd., dated 2025).

Numbering of substitutions follows the chain as printed. Like-named read-outs stand apart in the source and are kept apart here.

One may read the EC50 as the midpoint of the concentration-response curve. The low end stands for greater potency, the high end for weaker potency. In general, Kd refers to the equilibrium constant for the complex coming apart.

Assay [1] concerns the target T1, GIPR on CHOK1-GIPR/GLP-1R cells (human, UniProt P48546 22-466).
T1 construct: whole, on cells; also called CHOK1-hGIPR cells
T1 sequence (looked up): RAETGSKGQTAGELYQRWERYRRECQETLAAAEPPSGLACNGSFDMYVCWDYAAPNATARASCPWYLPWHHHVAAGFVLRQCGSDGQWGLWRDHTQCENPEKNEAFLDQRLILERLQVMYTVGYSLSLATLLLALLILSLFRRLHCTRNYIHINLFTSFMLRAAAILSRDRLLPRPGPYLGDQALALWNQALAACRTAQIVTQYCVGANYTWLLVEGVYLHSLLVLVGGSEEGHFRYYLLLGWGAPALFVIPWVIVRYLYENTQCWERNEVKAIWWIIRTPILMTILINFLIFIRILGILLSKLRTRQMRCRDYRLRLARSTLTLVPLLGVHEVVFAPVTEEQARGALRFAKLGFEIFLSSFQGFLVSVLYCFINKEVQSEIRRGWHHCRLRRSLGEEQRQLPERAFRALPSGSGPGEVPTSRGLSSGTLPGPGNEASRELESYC
The experiment in a line: flow cytometry on CHOK1-GIPR/GLP-1R cells (run with CE947). (In general: Flow cytometry measures light scatter and fluorescence of single cells or particles in a stream.)

For assay [2], the target named is T2, hGIPR-His protein (human, UniProt P48546 22-138).
T2 chain: T1 sequence (looked up)
Description: BLI (Octet), antibody captured on FAB2G sensor, hGIPR-His in solution, 1:1 model. A general note: In BLI a coated tip is dipped into the sample, and binding shifts an interference pattern.

Assay [3] deals with T1, GIPR on CHOK1-GIPR/GLP-1R cells. The experiment in a line: flow cytometry on CHOK1-GIPR/GLP-1R cells (run with CA360).
Assay [4] shares this target. Description: flow cytometry on CHOK1-GIPR/GLP-1R cells (run with BA191).
Assay [5] shares this target. Description: cell-based or functional assay.
The target is the same in assay [6]. Description: flow cytometry on CHOK1-GIPR/GLP-1R cells (run with CE560).
Assay [7] has as its target T2, hGIPR-His protein. Description: BLI (Octet), antibody captured on FAB2G sensor, hGIPR-His in solution.
In assay [8] the target is T1, GIPR on CHOK1-GIPR/GLP-1R cells. The experiment in a line: cell-based or functional assay. This is another data set of the same source.
Assay [9] has the same target. Description: flow cytometry on CHOK1-GIPR/GLP-1R cells.
In a further assay the target is T3, mGIPR-Fc protein (mouse, UniProt Q0P543 19-134, limits assumed).
T3 construct: also called mouse GIPR-Fc protein; not shown: Fc part
T3 sequence (looked up): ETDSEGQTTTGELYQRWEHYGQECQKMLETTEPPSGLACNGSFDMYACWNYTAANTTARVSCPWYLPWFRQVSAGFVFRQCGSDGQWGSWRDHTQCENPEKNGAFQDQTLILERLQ
The experiment in a line: ELISA, mGIPR-Fc coated. On the technique in general: In an ELISA, binding on a coated surface is turned into a signal by an enzyme label.

B1: 2G10 (antibody, V domains shown)
VH: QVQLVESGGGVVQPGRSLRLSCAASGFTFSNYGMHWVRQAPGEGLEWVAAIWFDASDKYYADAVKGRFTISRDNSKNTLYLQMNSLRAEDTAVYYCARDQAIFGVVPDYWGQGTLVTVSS
VL: EIVMTQSPATLSVSPGERATLSCRASQSVSSNLAWYQQKPGQAPRLLIYGAATRATGIPARVSGSGSGTEFTLTISSLQSEDFAVYYCQQYNNWPLTFGGGTKVEIKR
notes: also called control group 2G10
In the case of B1, the EC50 in assay [1] was determined as 0.213 µg/mL; in [3] it was 0.213 µg/mL; in assay [4], 0.151 µg/mL; in assay [6] it was 0.263 µg/mL. The affinity with hGIPR-His protein [2], expressed as Kd, was 12.6 nM. The “IC50 (µg/mL), cAMP content” value in assay [5] worked out at 0.21 µg/mL; in [8], 0.3 µg/mL. Also, the Response with hGIPR-His protein [7] came to 0.142.

B2: CA360 (antibody, human IgG1, kappa, L234A L235A, V domains shown)
VH: EVQLVQSGAEVKKPGSSVKVSCKASGGTFSGYPINWVRQAPGQGLEWMGRIIPIPGIPNYAQKFQDRVTITADKFANTAYMELSSLRSEDTAVYYCARDPLGPYVFDIWGQGTMVTVSS
VL: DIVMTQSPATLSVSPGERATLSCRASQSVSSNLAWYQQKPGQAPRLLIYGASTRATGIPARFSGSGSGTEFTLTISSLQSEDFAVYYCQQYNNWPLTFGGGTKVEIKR
notes: also called GIPR antibody CA360
Take B2: in assay [9], the EC50 is 0.328 µg/mL and the “Maximum binding value (RFU)” value is 281000 RFU. This molecule showed a Kd in the assay with hGIPR-His protein [2] of 3.07 nM. The “IC50 (µg/mL), cAMP content” value in [5] amounted to 0.2 µg/mL. This molecule yielded a Response with hGIPR-His protein [7] of 0.246.

B3: BA191 (antibody, human IgG1, kappa, L234A L235A, V domains shown)
VH: EVQLVQSGAEVKKPGSSVKVSCKASGGTFSTFSSYAISWVRQAPGQGLEWMGRIIPILGIGNNAQKFQGRVTITADKSTSTAYMELSSLRSEDTAVYYCAREKDWGHFDYWGQGTLVTVSS
VL: DIQMTQSPSSLSASVGDRVTITCRASQGISNYLAWFQQKPGKAPKSLIYAASSLQSGVPSKFSGSGSGTDFTLTISSLQPEDFATYYCQQYNSYPITFGQGTRLEIKR
notes: also called GIPR antibody BA191
As to B3, in assay [9], the EC50 came to 0.091 µg/mL and the “Maximum binding value (RFU)” value worked out at 17600 RFU. The molecule further had a Kd in the assay with hGIPR-His protein [2] of 4.28 nM. Also, in the assay with mGIPR-Fc protein, the binding result is “no binding (tested: starting from 0.2 µg/mL)”. For the same molecule, the Response with hGIPR-His protein [7] was found to be 0.246. Further, the “IC50 (µg/mL), cAMP content” value in [8] worked out at 0.04 µg/mL.

B4: CE947 (antibody, human IgG1, kappa, L234A L235A, V domains shown)
VH: EVQLVQSGAEVKKPGSSVKVSCKASGGTFNNYAISWVRQAPGQGLEWMGRIIPFLDIASNAQKFQGKVTITADKSTSTAYMELSSLRSEDTAVYYCAREVDWGWFDSWGQGTLVTVSS
VL: B3 VL with K61R, S77N, Q89L, N92Y, S93D, I96L, Q100G, R103K
notes: also called GIPR antibody CE947
In the case of B4, in assay [9], the response was half-maximal at 0.131 µg/mL (EC50) and the “Maximum binding value (RFU)” value is 311000 RFU. The molecule further yielded a Kd with hGIPR-His protein [2] of 1.13 nM. In addition, the binding result with mGIPR-Fc protein is “no binding (tested: starting from 0.2 µg/mL)”. In the assay with hGIPR-His protein [7], this molecule displayed a Response of 0.19. Also, in assay [8], the “IC50 (µg/mL), cAMP content” value was found to be 0.05 µg/mL.

B5: CE560 (antibody, human IgG1, kappa, L234A L235A, V domains shown)
VH: B4 VH with N60Y
VL: IQMTQSPSSLSASVGDRVTITCRASQGISSYLAWYQQKPGKAPKLLIYAASTLQSGVPSRFSGSGSGTDFTLTISSLQPEDFATYYCQQLNSYPLTFGGGTKVEIKR
notes: also called GIPR antibody CE560
For B5, in [9], the EC50 was 0.206 µg/mL and the “Maximum binding value (RFU)” value turned out to be 492000 RFU. In the assay with hGIPR-His protein [2], the Kd was found to be 2.63 nM. Also, the “IC50 (µg/mL), cAMP content” value in assay [5] is 0.14 µg/mL. Moreover, the binding result in the assay with mGIPR-Fc protein is given as “no binding (tested: starting from 0.2 µg/mL)”. The Response with hGIPR-His protein [7] worked out at 0.222.
